Laboratory results as given in the supplement of paper PMC10567573.

B1: BCL2L13 (parent)
chain: MASSSTVPLGFHYETKYVVLSYLG

Variants of: B1
Test: protein stability index of a GFP-peptide fusion (GPS, HEK-293T) (PSI 1-6); higher = more stable
Details: c terminus: a fixed tail appended
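Also: lentivirally expressed fusions sorted by FACS into six bins by GFP to DsRed ratio, PSI derived from sequencing read proportions per bin multiplied by bin number.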

Protein stability index of substitutions, site by site:
K16: W 2.56; R 2.55; C 4.41; Q 2.6; D 3.26; G 2.38; Y 3.26; A 2.64; H 1.46; L 2.04; M 2.61; I 2.74; F 2.32; V 2.53; N 3.56; E 4.22; P 1.83; S 2.81
V18: H 1.88; L 1.88; K 2.31; S 1.79; I 2.81; P 1.91; G 1.53; T 2.88; W 1.84; F 3.21; E 2.02; M 2.55; Q 1.37; R 1.88; Y 2.6; A 2.24; D 1.89; N 1.56
S21: L 3.41; F 3.84; G 1.62; E 1.24; K 1.45; H 2.27; P 2.35; A 3.51; N 2.4; Q 3.52; I 2.36; R 3.78; W 3.36; D 2.24; T 2.72; Y 2.51; C 3.12
T15: S 1.11; V 3.06; Q 2.84; L 2.1; R 1.36; K 1.4; W 2.05; E 2.61; P 2.06; H 1.91; C 1.71; G 1.34; M 2.79; D 2.03; F 1.5; Y 2.75; A 1.86; I 3.13; N 1.75
P8: D 2.98; K 3.91; I 2.73; N 3.63; R 3.92; Y 3.53; T 2.53; E 2.25; Q 2.54; S 2.54; A 2.97; V 2.15; G 4.24; M 3.28; L 1.66; F 2.74; H 2.22; W 3.73
T6: D 2.29; C 1.67; R 2.82; I 2.35; L 2.14; P 2.59; S 2.95; M 2.4; G 1.94; Q 2.26; H 3.22; Y 2.66; K 2.59; E 3.45; N 2.58; V 1.82; W 2.27
Y13: V 2.51; D 2.35; F 3.43; P 1.84; G 2.14; K 1.44; I 2.65; E 1.59; T 2.28; H 2.27; Q 1.39; L 2.59; R 1.85; M 2.14; W 2.16; N 1.7; S 2.07; A 2.82; C 2.25
L9: C 3.98; W 3.66; Y 2.57; N 3.25; K 2.57; A 2; Q 2.62; I 3.14; V 2.06; D 2.32; F 1.33; H 2.31; S 3.42; P 2.1; T 2.45; G 2.75; E 2.33; M 2.35; R 1.79
E14: G 2.09; W 3.62; D 2.67; A 2.21; P 2.24; K 2.72; Q 3.35; R 2.14; H 1.75; M 3.1; N 2.48; F 1.81; T 2.3; Y 2.64; I 2.82; S 2.62; V 2.46
L23: C 2.09; I 2.11; P 1.71; M 3.69; R 2.21; S 2.34; T 1.44; H 2.59; K 2.3; G 1.71; E 1.65; Y 2.46; F 2.12; W 2.76; N 2.18; V 1.93; D 1.63; Q 1.48
V19: G 2.09; E 1.7; W 1.91; M 3.27; P 2.2; N 1.94; Y 2.63; R 1.41; L 2.29; K 1.34; T 3.32; D 1.45; S 2.19; A 1.99; C 2.34; F 1.5; Q 1.71; I 3.19; H 1.73
Y17: L 2.22; C 2.48; G 2; M 3.56; S 1.66; K 2.1; F 3.51; E 1.86; N 1.62; A 2.67; Q 1.84; P 1.95; T 1.62; R 1.66; D 1.73; H 1.95
V7: C 3.72; L 3.03; R 2.33; T 2.36; D 3.29; F 2.17; S 3.11; P 2.14; K 2.84; I 2.72; Y 3.3; G 2.08; N 3.19; W 2.36; M 2.35; A 2.78; H 2.67; E 3.31
L20: Y 2.88; P 1.7; K 2.52; G 1.74; V 2.82; W 2.22; H 2.01; N 1.65; M 2.37; A 2.12; S 1.69; T 2.17; C 2.58; E 1.78; R 1.48; F 3.51; Q 2.19; D 2.18; I 1.71
Y22: Q 3.03; I 2.02; L 3.28; K 2.37; A 1.89; V 1.89; M 2.7; H 3; E 1.85; D 2.4; N 1.63; S 3.81; C 2.8; T 2.81; G 2.51; F 2.49; W 2.89; P 1.47; R 1.69
F11: G 1.35; Y 2.49; I 2.02; T 1.81; L 2.36; W 1.89; S 1.9; M 2.82; A 2.41; Q 2.85; E 1.94; R 1.71; C 2.63; N 2.69; K 2.63; D 2.03; P 2.33; H 1.67
H12: N 2.12; A 2.3; I 2.75; V 2.67; K 2.23; S 3.12; T 1.81; W 2.66; Q 2.67; C 3.05; E 2.55; M 2.39; G 2.11; P 2.5; F 3.51; R 1.91; Y 3.26; L 1.49; D 2.39
G24: E 2.05; I 1.75; A 2.8; D 2.38; H 2.42; C 2.21; K 1.45; F 3.97
G10: T 3.54; Q 1.69; F 2.22; E 2.13; I 1.73; H 3.03; W 2.57; D 2.02; K 3.29; N 2.93; S 2.77; L 2.52; V 2.14; Y 4.41; R 3.6; M 2.73; A 2.01; C 2.1
